Reference: patent US20220056146A1 (TASRIF PHARMACEUTICAL, published 2022)

T1: human CD155 (poliovirus receptor, PVR) on cells (U87/U87MG, HAP1) (human, UniProt P15151 21-417)
T1 construct: whole, on cells
T1 sequence (looked up): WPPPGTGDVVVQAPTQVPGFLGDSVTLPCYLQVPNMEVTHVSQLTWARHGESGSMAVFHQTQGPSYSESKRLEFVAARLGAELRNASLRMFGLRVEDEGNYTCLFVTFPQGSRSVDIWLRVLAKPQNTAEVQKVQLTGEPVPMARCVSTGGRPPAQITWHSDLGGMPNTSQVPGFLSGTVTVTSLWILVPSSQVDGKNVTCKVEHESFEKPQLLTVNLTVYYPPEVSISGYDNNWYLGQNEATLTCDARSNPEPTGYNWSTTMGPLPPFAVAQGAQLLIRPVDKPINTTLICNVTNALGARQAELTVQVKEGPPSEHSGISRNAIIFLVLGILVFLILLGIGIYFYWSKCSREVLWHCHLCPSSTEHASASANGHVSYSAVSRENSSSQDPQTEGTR

T2: poliovirus receptor (PVR, CD 155), form not stated (UniProt P15151 21-343, limits assumed)
T2 sequence (looked up): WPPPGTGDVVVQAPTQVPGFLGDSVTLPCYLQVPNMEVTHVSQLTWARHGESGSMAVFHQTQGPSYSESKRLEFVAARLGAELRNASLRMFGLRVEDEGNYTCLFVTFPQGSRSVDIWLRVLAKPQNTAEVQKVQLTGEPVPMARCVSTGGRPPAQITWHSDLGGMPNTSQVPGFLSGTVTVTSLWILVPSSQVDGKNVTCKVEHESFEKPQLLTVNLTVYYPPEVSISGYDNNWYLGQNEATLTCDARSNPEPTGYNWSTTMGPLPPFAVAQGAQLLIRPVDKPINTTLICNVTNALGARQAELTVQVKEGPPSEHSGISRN


Tests used:
[1] = target: T1, human CD155 (poliovirus receptor, PVR) …; assay: cell binding on U-87 cells
[2] = target: T3, African green monkey PVR (CD 155) on Vero cells (African green monkey); assay: cell binding on Vero cells
T3 construct: whole, on cells
T3 sequence (P32506 21-417): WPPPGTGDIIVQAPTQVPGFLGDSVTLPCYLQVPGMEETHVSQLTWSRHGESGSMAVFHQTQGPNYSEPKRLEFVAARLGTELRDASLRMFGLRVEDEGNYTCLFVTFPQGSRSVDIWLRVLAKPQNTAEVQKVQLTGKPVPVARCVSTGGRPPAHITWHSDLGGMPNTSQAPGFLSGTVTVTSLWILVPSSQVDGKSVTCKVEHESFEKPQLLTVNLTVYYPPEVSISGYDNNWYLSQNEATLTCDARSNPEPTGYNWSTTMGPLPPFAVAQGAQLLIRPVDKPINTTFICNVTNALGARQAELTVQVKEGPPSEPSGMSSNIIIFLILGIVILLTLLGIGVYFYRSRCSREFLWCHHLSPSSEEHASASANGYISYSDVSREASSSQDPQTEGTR

[3] = target: T1, human CD155 (poliovirus receptor, PVR) …; assay: cell binding on HAP-1 cells
[4] = target: T1, human CD155 (poliovirus receptor, PVR) …; assay: in vivo fluorescence imaging of mice with U87MG tumors, 72 hours after injection
Protocol: Ab825-VT680 conjugate binds and accumulates in U87MG tumors In Vivo. The control mice were either untreated or treated with VT 680 dye alone.

[5] = target: T2, poliovirus receptor (PVR, CD 155), form …; assay: surface plasmon resonance (Biacore)

Row | Binder | EC50 [1] [µg/mL] | EC50 [2] [µg/mL] | EC50 [3] [µg/mL] | binding result [4] | Kd [5] [nM]
1 | Ab825 (VH0/VK0), human IgG1 chimeric antibody (antibody, V domains shown, Murine variable regions in a human IgG1 chimeric antibody, derived from D171) VH: EVQLQQSGPELVKPGASVKISCKTSGYTFTEYTMHWVKQSHGKSLEWIGGIHPNNGDTSYNQRFKGKATLTVDKSSSTAYMELRSLTSEDSAVYYCARWTGDFDYWGQGTTLTVST VL: DIVMTQSPKFMSTSVGDRVSVTCKASQNVGTNVAWYQQKPGQSPKALIYSASYRYSGVPDRFTGSGSGTDFTLTISNVQSEDLAEYFCQQYNSYPYTFGGGTKLEIK | 0.0869 | 0.086 | 0.0487 |  | 
2 | Ab825-VT680 conjugate (antibody, V domains shown, Ab825 conjugated to the fluorophore VT680; Neither the chain nor the site of conjugation is stated) VH: EVQLQQSGPELVKPGASVKISCKTSGYTFTEYTMHWVKQSHGKSLEWIGGIHPNNGDTSYNQRFKGKATLTVDKSSSTAYMELRSLTSEDSAVYYCARWTGDFDYWGQGTTLTVST VL: DIVMTQSPKFMSTSVGDRVSVTCKASQNVGTNVAWYQQKPGQSPKALIYSASYRYSGVPDRFTGSGSGTDFTLTISNVQSEDLAEYFCQQYNSYPYTFGGGTKLEIK |  |  |  | binds | 
3 | VH4 N54S D56E / VK3 N92E (antibody, V domains shown, Humanized variant of Ab825; also called antibody (vi)) VH: EVQLVQSGSELKKPGASVKVSCKTSGYTFTEYTMHWVRQPHGKGLEWIGGIHPNSGETSYNQRFKGRVTITVDKSTSTAYMELSSLRSEDTAVYYCARWTGDFDYWGQGTLVTVSS VL: DIQMTQSPSAMSASVGDRVTITCKASQNVGTNVAWYQQKPGQPPKALIYSASYRYSGVPDRFSGSGSGTDFTLTISSLQAEDLAEYFCQQYESYPYTFGQGTKLEIK | 0.585 | 0.236 | 0.0984 |  | 
4 | monoclonal antibody defined by SEQ ID 23 (LCVR) and SEQ ID 25 (HCVR) with a IgG4 (S241P) (antibody, V domains shown, also called VH4 N54S D56G / Vk3 N92Q IgG4 (S241P)) VH: EVQLVQSGSELKKPGASVKVSCKTSGYTFTEYTMHWVRQPHGKGLEWIGGIHPNSGGTSYNQRFKGRVTITVDKSTSTAYMELSSLRSEDTAVYYCARWTGDFDYWGQGTLVTVSS VL: DIQMTQSPSAMSASVGDRVTITCKASQNVGTNVAWYQQKPGQPPKALIYSASYRYSGVPDRFSGSGSGTDFTLTISSLQAEDLAEYFCQQYQSYPYTFGQGTKLEIK |  |  |  |  | 0.3
5 | VH4 N54S D56G / VK3 N92Q (antibody, V domains shown, Humanized variant of Ab825; also called antibody (ix); Sample 4) VH: EVQLVQSGSELKKPGASVKVSCKTSGYTFTEYTMHWVRQPHGKGLEWIGGIHPNSGGTSYNQRFKGRVTITVDKSTSTAYMELSSLRSEDTAVYYCARWTGDFDYWGQGTLVTVSS VL: DIQMTQSPSAMSASVGDRVTITCKASQNVGTNVAWYQQKPGQPPKALIYSASYRYSGVPDRFSGSGSGTDFTLTISSLQAEDLAEYFCQQYQSYPYTFGQGTKLEIK | 0.0932 | 0.0869 | 0.0446 |  | 
6 | VH3 N54Q D56E / VK2 N92E (antibody, V domains shown, Humanized variant of Ab825; also called antibody (i)) VH: EVQLVQSGSELKKPGASVKISCKTSGYTFTEYTMHWVRQPHGKGLEWIGGIHPNQGETSYNQRFKGRVTLTVDKSTSTAYMELSSLRSEDTAVYYCARWTGDFDYWGQGTLVTVSS VL: DIVMTQSPSAMSASVGDRVTITCKASQNVGTNVAWYQQKPGQPPKALIYSASYRYSGVPDRFTGSGSGTDFTLTISSLQAEDLAEYFCQQYESYPYTFGQGTKLEIK | 0.272 | 0.226 | 0.168 |  | 
7 | VH4 N54Q D56E / VK3 N92Q (antibody, V domains shown, Humanized variant of Ab825; also called antibody (viii)) VH: EVQLVQSGSELKKPGASVKVSCKTSGYTFTEYTMHWVRQPHGKGLEWIGGIHPNQGETSYNQRFKGRVTITVDKSTSTAYMELSSLRSEDTAVYYCARWTGDFDYWGQGTLVTVSS VL: DIQMTQSPSAMSASVGDRVTITCKASQNVGTNVAWYQQKPGQPPKALIYSASYRYSGVPDRFSGSGSGTDFTLTISSLQAEDLAEYFCQQYQSYPYTFGQGTKLEIK | 0.523 | 0.48 | 0.108 |  | 
8 | VH3 N54Q D56E / VK3 N92E (antibody, V domains shown, Humanized variant of Ab825; also called antibody (iii)) VH: EVQLVQSGSELKKPGASVKISCKTSGYTFTEYTMHWVRQPHGKGLEWIGGIHPNQGETSYNQRFKGRVTLTVDKSTSTAYMELSSLRSEDTAVYYCARWTGDFDYWGQGTLVTVSS VL: DIQMTQSPSAMSASVGDRVTITCKASQNVGTNVAWYQQKPGQPPKALIYSASYRYSGVPDRFSGSGSGTDFTLTISSLQAEDLAEYFCQQYESYPYTFGQGTKLEIK | 0.284 | 0.273 | 0.115 |  | 
9 | VH4 N54S D56G / VK3 N92E (antibody, V domains shown, Humanized variant of Ab825; also called antibody (vii)) VH: EVQLVQSGSELKKPGASVKVSCKTSGYTFTEYTMHWVRQPHGKGLEWIGGIHPNSGGTSYNQRFKGRVTITVDKSTSTAYMELSSLRSEDTAVYYCARWTGDFDYWGQGTLVTVSS VL: DIQMTQSPSAMSASVGDRVTITCKASQNVGTNVAWYQQKPGQPPKALIYSASYRYSGVPDRFSGSGSGTDFTLTISSLQAEDLAEYFCQQYESYPYTFGQGTKLEIK | 0.191 | 0.108 | 0.0563 |  | 
10 | VH3 N54S D56G / VK2 N92Q (antibody, V domains shown, Humanized variant of Ab825; also called antibody (ii); Sample 2) VH: EVQLVQSGSELKKPGASVKISCKTSGYTFTEYTMHWVRQPHGKGLEWIGGIHPNSGGTSYNQRFKGRVTLTVDKSTSTAYMELSSLRSEDTAVYYCARWTGDFDYWGQGTLVTVSS VL: DIVMTQSPSAMSASVGDRVTITCKASQNVGTNVAWYQQKPGQPPKALIYSASYRYSGVPDRFTGSGSGTDFTLTISSLQAEDLAEYFCQQYQSYPYTFGQGTKLEIK | 0.069 | 0.0615 | 0.0383 |  | 
11 | VH4 N54Q D56E / VK3 N92E (antibody, V domains shown, Humanized variant of Ab825; also called antibody (v)) VH: EVQLVQSGSELKKPGASVKVSCKTSGYTFTEYTMHWVRQPHGKGLEWIGGIHPNQGETSYNQRFKGRVTITVDKSTSTAYMELSSLRSEDTAVYYCARWTGDFDYWGQGTLVTVSS VL: DIQMTQSPSAMSASVGDRVTITCKASQNVGTNVAWYQQKPGQPPKALIYSASYRYSGVPDRFSGSGSGTDFTLTISSLQAEDLAEYFCQQYESYPYTFGQGTKLEIK | 0.551 | 0.629 | 0.097 |  | 
12 | VH3 N54S D56G / VK3 N92Q (antibody, V domains shown, Humanized variant of Ab825; also called antibody (iv); Sample 3) VH: EVQLVQSGSELKKPGASVKISCKTSGYTFTEYTMHWVRQPHGKGLEWIGGIHPNSGGTSYNQRFKGRVTLTVDKSTSTAYMELSSLRSEDTAVYYCARWTGDFDYWGQGTLVTVSS VL: DIQMTQSPSAMSASVGDRVTITCKASQNVGTNVAWYQQKPGQPPKALIYSASYRYSGVPDRFSGSGSGTDFTLTISSLQAEDLAEYFCQQYQSYPYTFGQGTKLEIK | 0.0778 | 0.0561 | 0.0381 |  | 
